This note sets out measurements from article PMC4445282, “Alpha-L-Fucosidase Isoenzyme iso2 from Paenibacillus thiaminolyticus” (BMC Biotechnology, 2015).

In general, Km refers to the substrate concentration at which the rate is half of its maximum. In general, kcat refers to the maximal rate divided by the concentration of active sites.

Substrate in this series: C[C@@H]1O[C@@H](Oc2ccc([N+](=O)[O-])cc2)[C@@H](O)[C@H](O)[C@@H]1O
Put plainly: purified protein. It is filed as biochemical, Paenibacillus thiaminolyticus. The note with it: 50 mM phosphate pH 7.0, 37 °C (standard assay), substrate 0.01-35 mmol/L.

B1: α-L-fucosidase iso2 (Paenibacillus thiaminolyticus) (protein)
chain: MRYRQVHLDFHTSEHISDIGRNFSKKNFQEMLQLGHVNSITVFAKCHHGWAYFPSATNEIHPRLDFDLLGAQIEAAHEIGVKVPIYISVGFDEKLAWEKPQWLMRDEADRMNWVDSFMKPGYHQFCLNTPYLDLVIEQVQEVVRKYDGDGIFLDIVGERTCYCTTCLKQMQADGLDPHNKEDVIANGRRIYANYTTRIREAIDAIKPGLPVFHNAGHIHQGRRDLMGMNSHLELESLPTGGWGYDHFPLSARYAQPTGFHFLGMTGKFHTFWGEFGGYKHPNALRYETALSLANGARCSIGDQLHPGGQMDRATYELIGKAYAEVEAKEAWCVNAVNLADVALLTVEAAGVQQESGAMYSGKVDMGAVRMLLEGKILFDIVDLESDWSGYKVLILPDSIVMKDTILPKVEAFLAAGGKVLASGRSGLNVELTRQMLPLGFTDSGLNPFRPDYFRPLCDGMANLGEAAYVMYGDGRRIELTDGTELGRREDPYFNRQAFRFCSHQHAPSSEQEGGPGMVESAQGIYIAWNVFEDYATKGSLILKEMVLFALRRLLGEQITLKTTLPAQGVTTLQHQAAERRYINHLLYASPVKRGERVEIIEDMIPLQQVEVQLQLPVTDVKRVYLAPQMTEIEFKASGGDVQFTVPQLECHQMVVVEYNE
notes: His-tagged fusion from pET16b-αLF2 (NdeI/XhoI), tag kept; E. coli BL21(DE3); Ni-NTA; primers encode start MRYRQVH and end VVEYNE
Consider B1, for which the Km amounted to 520 ± 50 µM, the kcat amounted to 111 ± 3 s⁻¹ and the kcat/Km is listed as 213 ± 30 (mmol/L)^-1 s^-1.
